Target: Nup159-Dbp5-Mg2+mantADP complex (S. cerevisiae | , UniProt P20449 1-482; P40477 1-1460)
Test: stopped-flow kinetics of mantADP dissociation

Chain of Nup159-Dbp5-Mg2+mantADP complex (P20449 whole entry, chain 1 of 2): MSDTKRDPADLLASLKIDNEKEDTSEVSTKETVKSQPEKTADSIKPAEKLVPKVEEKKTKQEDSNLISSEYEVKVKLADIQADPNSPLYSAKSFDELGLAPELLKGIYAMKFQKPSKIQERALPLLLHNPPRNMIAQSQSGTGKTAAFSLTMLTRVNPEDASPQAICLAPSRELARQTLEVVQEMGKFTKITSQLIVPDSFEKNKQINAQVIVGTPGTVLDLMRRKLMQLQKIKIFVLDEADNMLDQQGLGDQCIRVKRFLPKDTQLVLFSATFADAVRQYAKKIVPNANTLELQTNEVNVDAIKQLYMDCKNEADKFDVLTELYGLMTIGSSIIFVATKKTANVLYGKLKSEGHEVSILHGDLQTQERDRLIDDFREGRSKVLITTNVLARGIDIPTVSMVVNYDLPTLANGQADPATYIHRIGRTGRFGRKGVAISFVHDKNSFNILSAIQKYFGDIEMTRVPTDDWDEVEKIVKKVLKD
Chain of Nup159-Dbp5-Mg2+mantADP complex (P40477 whole entry, chain 2 of 2): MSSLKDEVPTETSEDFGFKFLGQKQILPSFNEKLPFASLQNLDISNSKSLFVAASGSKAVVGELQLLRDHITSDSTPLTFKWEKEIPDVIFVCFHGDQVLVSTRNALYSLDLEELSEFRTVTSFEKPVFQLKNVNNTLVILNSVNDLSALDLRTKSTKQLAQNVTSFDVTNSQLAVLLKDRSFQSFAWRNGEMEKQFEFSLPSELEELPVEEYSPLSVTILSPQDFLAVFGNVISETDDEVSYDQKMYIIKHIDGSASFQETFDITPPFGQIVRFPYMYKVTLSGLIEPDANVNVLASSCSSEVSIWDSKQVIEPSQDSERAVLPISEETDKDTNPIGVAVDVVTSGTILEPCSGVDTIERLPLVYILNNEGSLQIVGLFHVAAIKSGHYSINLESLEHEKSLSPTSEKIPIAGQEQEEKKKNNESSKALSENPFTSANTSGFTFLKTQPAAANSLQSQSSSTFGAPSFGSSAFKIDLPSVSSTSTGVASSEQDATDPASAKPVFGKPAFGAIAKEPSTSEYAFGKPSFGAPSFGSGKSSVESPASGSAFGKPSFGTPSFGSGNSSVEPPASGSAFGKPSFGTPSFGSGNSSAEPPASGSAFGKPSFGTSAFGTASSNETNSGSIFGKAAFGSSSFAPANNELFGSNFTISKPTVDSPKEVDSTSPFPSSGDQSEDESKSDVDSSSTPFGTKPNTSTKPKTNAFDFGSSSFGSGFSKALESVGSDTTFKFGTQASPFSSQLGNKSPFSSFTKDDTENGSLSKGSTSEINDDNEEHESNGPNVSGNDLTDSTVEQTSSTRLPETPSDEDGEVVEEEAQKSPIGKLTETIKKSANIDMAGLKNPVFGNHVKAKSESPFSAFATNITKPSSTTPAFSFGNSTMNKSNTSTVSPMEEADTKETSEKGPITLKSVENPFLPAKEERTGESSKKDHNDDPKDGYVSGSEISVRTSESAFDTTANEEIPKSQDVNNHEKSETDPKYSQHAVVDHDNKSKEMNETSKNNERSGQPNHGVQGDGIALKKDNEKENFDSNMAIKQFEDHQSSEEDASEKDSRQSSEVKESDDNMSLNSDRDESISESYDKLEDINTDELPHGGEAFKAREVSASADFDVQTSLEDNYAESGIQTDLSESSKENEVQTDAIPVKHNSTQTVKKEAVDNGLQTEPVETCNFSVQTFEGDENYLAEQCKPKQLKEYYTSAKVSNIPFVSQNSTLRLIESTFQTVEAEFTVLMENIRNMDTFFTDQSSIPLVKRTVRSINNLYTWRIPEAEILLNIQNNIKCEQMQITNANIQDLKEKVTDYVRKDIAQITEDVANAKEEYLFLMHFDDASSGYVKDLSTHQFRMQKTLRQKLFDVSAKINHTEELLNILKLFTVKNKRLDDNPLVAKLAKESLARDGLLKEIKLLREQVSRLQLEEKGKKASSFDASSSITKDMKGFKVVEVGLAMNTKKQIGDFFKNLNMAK

Kd: 1800 nM
B1: Gle1 (natural protein, UniProt Q12315 1-538, looked up)
chain: MRFVFDEVFNSDTDSPEFEETCSTTSSTSSQCPTPEPSPAIKLPSFTKVGTKKLVNESVVILDPALENALRDLNLQSKLIPINEPIVAASSIIVPHSTNMPLPRASHSSLLDNAKNSNATAPLLEAIEESFQRKMQNLVLANQKEIQSIRENKRRVEEQRKRKEEEERKRKEAEEKAKREQELLRQKKDEEERKRKEAEAKLAQQKQEEERKKIEEQNEKERQLKKEHEAKLLQQKDKLGKAVTNFDKISKMFWHYKDKIAQIKQDIVLPIKKADVNVRNLLSRHKRKINPKFGQLTNSNQQLFKIQNELTQLINDTKGDSLAYHWILNFIAKAVVHQAETEVRVKPESALPLGKLTLYLLVQFPELQELFMARLVKKCPFVIGFTCEIDTEKGRQNMGWKRNNENKWEDNTSYDERMGGILSLFAIITRLQLPQEFITTTSHPFPIALSWHILARICNTPLNLITNTHFVILGSWWDAAAVQFLQAYGNQASKLLILIGEELTSRMAEKKYVGAARLRILLEAWQNNNMESFPEMSP

Source: publication PMC6003625 (Journal of molecular biology, 2018)
